From article PMC4288179, “Synergic interplay of the La motif, RRM1 and the interdomain linker of LARP6 in the recognition of collagen mRNA expands the RNA binding repertoire of the La module” come the findings set out here.

Common to all, as to assay: ITC; ITC: 20 mM Tris pH 7.25, 100 mM KCl, 5 mM MgCl2, 1 mM DTT, 298 K; protein titrated into RNA
What all share (conditions): protein: recombinant; tags: N-terminal His6 (TEV-cleavable); stem-loop with internal bulge

For one series, the target named is T1, HsLARP6(70-300) W85A (Homo sapiens, UniProt Q9BRS8 70-300, W85A).
T1 sequence: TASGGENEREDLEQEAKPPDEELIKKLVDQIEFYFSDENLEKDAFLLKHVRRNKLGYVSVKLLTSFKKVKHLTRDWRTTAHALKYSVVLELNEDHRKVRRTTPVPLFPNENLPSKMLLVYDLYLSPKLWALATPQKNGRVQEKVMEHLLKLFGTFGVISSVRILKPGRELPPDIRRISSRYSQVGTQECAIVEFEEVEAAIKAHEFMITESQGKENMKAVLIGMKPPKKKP

The next series deals with T2, HsLARP6(70-300) E262A (Homo sapiens, UniProt Q9BRS8 70-300, E262A).
T2 sequence: T1 sequence with A16W, E193A

The target in the next series is T3, HsLARP6(70-295) (Homo sapiens, UniProt Q9BRS8 70-295).
T3 sequence: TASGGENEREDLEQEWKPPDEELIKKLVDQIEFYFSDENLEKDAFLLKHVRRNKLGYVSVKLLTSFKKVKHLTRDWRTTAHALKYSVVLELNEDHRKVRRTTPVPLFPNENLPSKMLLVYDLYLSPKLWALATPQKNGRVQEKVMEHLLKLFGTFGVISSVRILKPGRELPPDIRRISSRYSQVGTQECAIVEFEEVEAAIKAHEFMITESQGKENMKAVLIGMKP

Another series has as its target T4, RRM1 chimera (Homo sapiens, UniProt Q9BRS8 70-179+P05455:111-202, internal_change).
T4 sequence: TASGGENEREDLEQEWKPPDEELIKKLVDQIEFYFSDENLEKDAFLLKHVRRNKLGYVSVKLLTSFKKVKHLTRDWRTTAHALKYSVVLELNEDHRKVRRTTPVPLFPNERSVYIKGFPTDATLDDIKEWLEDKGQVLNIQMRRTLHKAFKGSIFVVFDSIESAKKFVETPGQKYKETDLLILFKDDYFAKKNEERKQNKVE

In the next series the target is T5, HsLARP6(70-300) K86A (Homo sapiens, UniProt Q9BRS8 70-300, K86A).
T5 sequence: T1 sequence with A16W, K17A

The target in a further series is T6, HsLARP6 RRM1 (180-295) (Homo sapiens, UniProt Q9BRS8 180-295).
T6 sequence: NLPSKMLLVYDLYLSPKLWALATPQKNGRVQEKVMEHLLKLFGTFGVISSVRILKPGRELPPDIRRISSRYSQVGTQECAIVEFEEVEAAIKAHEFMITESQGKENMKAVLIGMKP

The target in another series is T7, HsLARP6(70-300) R249A (Homo sapiens, UniProt Q9BRS8 70-300, R249A).
T7 sequence: T1 sequence with A16W, R180A

Another series concerns the target T8, HsLARP6(70-300) F102A (Homo sapiens, UniProt Q9BRS8 70-300, F102A).
T8 sequence: T1 sequence with A16W, F33A

Positions count from the first letter of the chain named.

What is called Kd is the constant that tells how readily two partners part at equilibrium. With CCACAAAGAGUCUACAUGUCUAGGGUCUAGACAUGUUCAGCUUUGUGG (structured_RNA) [48 nt RNA (collagen alpha1(I) 5' UTR SL)], the Kd is 22 nM with HsLARP6(70-300) W85A; 5.3 nM with HsLARP6(70-300) E262A; 77 nM with HsLARP6(70-295); 77 nM with HsLARP6(70-300) K86A; 26 nM with HsLARP6(70-300) R249A. Moreover, the binding result with RRM1 chimera, with HsLARP6 RRM1 (180-295) and with HsLARP6(70-300) F102A was “no binding” throughout.
